In US12448434B2, “Antibodies specifically recognizing Pseudomonas PcrV and uses thereof” (priority 2019, dated 2025):

How the values were obtained:
[1] = rat, in vivo, iv
Procedure: Pharmacokinetic profile in rat: 40 healthy adult rats (about 0.2 kg by weight) were equally into two groups, where each group registered similar average weight. One group was injected intravenously with 30 mg/kg of V2L2-MD, 7C1, 7B1, 8C1 or 6D10 and the other group was injected intravenously with 3 mg/kg of V2L2-MD, 7C1, 7B1, 8C1 or 6D10. Blood was collected at […], and subsequently at 0 hour, 0.5 hour, 2 hour, 8 hour, 1 day, 3 days, 7 days, 11 days, 17 days, 23 days, 31 days, 41 days and 52 days after injection. After centrifugation, the plasma was used for analyzing antibody concentration using ELISA. For the ELISA experiment, synthetic PcrV was used to coat the wells of a 96-well plate. On the following day, after washing with PBST, blocking with 200 μL PBS-milk for an hour, and another wash with PBST, the plasma was added and incubated for an hour at 37° C. The plate was washed with 0.1% TBST for 6 times before 100 μL of Goat-anti-human Fc antibody-AP (1:3000 in PBS) was added to each well and incubated for an hour. After washing with 0.1% TBST for 6 times, 50 μL of pNPP was added to each well and color was developed for 10-20 minutes at 37° C. The signals were read by a microplate reader at 410 nm.

BV particles = experiment: Cross-reactivity to BV particles by ELISA; type: binding; conditions: FIG. 3
Procedure: Cross-reactivity to BV particles: Using ELISA, optimized antibodies 7C1, 7B1, 8C1, 6D10, and reference antibodies V2L2-MD and Mab166 were tested for cross-reactivity to BV particles according to the method described previously (See Hötzel I, et al, 2012, mAbs 4:6, 753-760).

PcrV-negative A549 cells = experiment: Cross-reactivity to PcrV-negative A549 cells by FACS; type: cell-based, human; conditions: FIGS. 4A-4E, compared with no antibody and V2L2-MD
Procedure: Cross-reactivity to A549 cells: Using FACS, parental antibody 13-42, optimized antibodies 7C1, 7B1, 8C1, 6D10 as well as V2L2-MD were tested for cross-reactivity to PcrV-negative A549 cells.

[2] = test system: P. aeruginosa strains O1-52/66, O16-177/81, and O6-57/66; experiment: RBC lysis inhibition assay, various strains (average); type: cell-based, Pseudomonas aeruginosa; conditions: FIGS. 5A-5C
Procedure: Monoclonal scFv antibodies were selected and assessed for biological activity by RBC lysis assay. Briefly, red blood cells (RBCs) were prepared from fresh whole human or rabbit blood by centrifugation, supplemented with EDTA and rinsed with multiple phosphate-buffered saline (PBS) washes. Washed RBCs (2.5% [vol/vol] final) in Dulbecco's modified Eagle's medium (DMEM) plus 10% fetal bovine serum (FBS) (Gibco) and purified anti-PcrV antibodies diluted in PBS were combined into wells of a round-bottom 96-well plate. Strain 57/66(O6) P. aeruginosa was grown to mid-log phase in 2× YT medium (Oxford), harvested by centrifugation, and resuspended in DMEM-fetal bovine serum (FBS) at an optical density at 600 nm (OD600) of 0.15. Ten microliters of bacterial suspension was added to the RBC-antibody mixture, mixed by agitation, and incubated for 3 hours at 37° C. and 5% CO2. The plates were briefly centrifuged (1000 rpm, 1 min) to pellet the intact RBCs, the supernatants transferred to a flat-bottom 96-well plate, and the OD405 was measured to detect any lysis, from which the relative amount of lysis inhibition was calculated and plotted. IC50 values for the antibodies were also determined.
The optimized anti-PcrV mAb clones 7C1, 8C1, and 7B1 were further analyzed for their abilities to inhibit red blood cell lysis by various strains of P. aeruginosa, namely strains O1-52/66, O16-177/81, and O6-57/66, as compared to the parental 13-42 mAb and the reference antibody V2L2-MD. RBC lysis inhibition assay was performed as described in Example 1.

PcrV = experiment: BIACORE binding to PcrV; parameters: species or system Pseudomonas aeruginosa; conditions: data not shown
Procedure: The association constant (ka), dissociation constant (kd) and the equilibrium dissociation constant (kD) for binding of optimized anti-PcrV mAb clones 7B1, 7C1, 8C1, 6D10 and reference antibody V2L2-MD to PcrV were tested by BIACORE (GE company).

[3] = test system: P. aeruginosa (PA103 strain); experiment: Therapeutic mouse acute pneumonia model, survival; type: in vivo, BALB/c mice; conditions: i.v. 1 h post-infection, 1 mg/kg or 10 mg/kg; 1*LD90; 6 days
Procedure: In a therapeutic model, to induce acute pneumonia, 7-8 week old BALB/c mice (Vital River Laboratory) were intranasally inoculated with P. aeruginosa (PA103 strain) suspended in a 40 μl inoculum at a lethal dose (1*LD90=8×10^5 CFU). Antibodies or PBS were administered intravenously (i.v.) at 1 h post-infection, at a dose of 1 mg/kg or 10 mg/kg mouse weight. Mouse survival was recorded for up to 6 days post-infection.

[4] = test system: P. aeruginosa strains O6-57/66, O11-PA103, O1-52/66 and O16-177/81; experiment: A549 cell lysis inhibition, various strains (average); type: cell-based, Pseudomonas aeruginosa; conditions: FIGS. 6A-6D
Procedure: To assay for ability to inhibit cytotoxicity and cell lysis caused by P. aeruginosa, the candidate anti-PcrV antibodies were added to human bronchoepithelial cell line A549 or human histiocytic lymphoma cell line U937 seeded in white 96-well plates (Nunc Nunclon Delta) in DMEM plus 10% fetal bovine serum. Log-phase strain PA103(O11) P. aeruginosa was added at a multiplicity of infection (MOI) of 10 and incubated for 2 h at 37° C. and 5% CO2, followed by 20 minutes of equilibration at room temperature. Lactate dehydrogenase (LDH) released from lysed cells was quantified using the CytoTox-ONE kit (Promega), to assay membrane integrity. The relative amount of lysis inhibition was plotted accordingly. IC50 values for the antibodies were also determined.
The optimized anti-PcrV mAb clones 7C1, 8C1, and 7B1 were analyzed for their abilities to inhibit A549 cell lysis by various strains of P. aeruginosa, namely strains O6-57/66, O11-PA103, O1-52/66 and O16-177/81, as compared to the parental 13-42 mAb. A549 cell lysis inhibition assay was performed as described in Example 2.

Molecule | half-lives relative to reference antibody V2L2-MD [1] | non-specific binding to BV particles (BV particles) | binding to PcrV-negative A549 cells (PcrV-negative A549 cells) | efficacy in inhibiting RBC lysis by strains O1-52/66, O16-177/81, O6-57/66 relative to V2L2-MD or parental 13-42 mAb [2] | association and dissociation kinetics in PcrV binding (ka and kd values) (PcrV) | survival improvement relative to V2L2-MD [3] | efficacy in inhibiting A549 lysis by four strains relative to parental 13-42 mAb [4]
7B1: optimized anti-PcrV mAb clone; VH SEQ ID NO: 62, VL SEQ ID NO: 67 (antibody, V domains shown) VH: EVQLLESGGGLVQPGGSLRLSCTASGFTFSDNYMSWVRQAPGKGLDWVSVISESGGSTNYADSVKGRFSTSRDNSKSTLYLDMNSLRAEDTAIYYCAKGRFSTLSSHFFRAVYGMDVWGQGTAVTVSS VL: DIQLTQSPSSLSASVGDRVTITCRASQGISSYLAWYQQKPGKAPKLLIYAASTLQSGVPSRFSGSGSGTDFTLTISSLQPEDFATYYCQQLSSYPLTFGGGTKVEIK | comparable to or longer than that of reference antibody V2L2-MD | low levels of non-specific binding | similarly low levels of A549 binding | better efficacy in inhibiting RBC lysis | comparable association and dissociation kinetics | survival improvement comparable to that of V2L2-MD | comparable efficacy in inhibiting A549 lysis
8C1: optimized anti-PcrV mAb clone; VH SEQ ID NO: 51, VL SEQ ID NO: 67 (antibody, V domains shown) VH: EVQLLESGGGLVQPGGSLRLSCTASGFTFSDNHMSWVRQAPGKGLDWVSGISESGGSTNYADSVKGRFSTSRDNSKSTLYLDMNSLRAEDTAIYYCAKGRFSTNSAHFFRAVYGMDVWGQGTAVTVSS VL: DIQLTQSPSSLSASVGDRVTITCRASQGISSYLAWYQQKPGKAPKLLIYAASTLQSGVPSRFSGSGSGTDFTLTISSLQPEDFATYYCQQLSSYPLTFGGGTKVEIK | comparable to or longer than that of reference antibody V2L2-MD | low levels of non-specific binding | similarly low levels of A549 binding | better efficacy in inhibiting RBC lysis | comparable association and dissociation kinetics | survival improvement comparable to that of V2L2-MD | comparable efficacy in inhibiting A549 lysis
7C1: optimized anti-PcrV mAb clone; VH SEQ ID NO: 52, VL SEQ ID NO: 65 (antibody, V domains shown) VH: EVQLLESGGGLVQPGGSLRLSCTASGFTFSDNHMSWVRQAPGKGLDWVSGISESGGSTNYADSVKGRFSTSRDNSKSTLYLDMNSLRAEDTAIYYCAKGRFSTSSSHFYRAVYGMDVWGQGTAVTVSS VL: DIQLTQSPSSLSASVGDRVTITCRASQGISSYLAWYQQKPGKAPKLLIYAASTLQSGVPSRFSGSGSGTDFTLTISSLQPEDFATYYCQQLSSYPLSFGGGTKVEIK | comparable to or longer than that of reference antibody V2L2-MD | low levels of non-specific binding | similarly low levels of A549 binding | better efficacy in inhibiting RBC lysis | comparable association and dissociation kinetics | survival improvement comparable to that of V2L2-MD | comparable efficacy in inhibiting A549 lysis
